In patent US20250382354A1 (INSTITUTE FOR RESEARCH IN BIOMEDICINE IRB, published 2025):
Substitutions are numbered along the chain they refer to.

B1: rbd.049 (antibody, V domains shown)
VH: QLQLQESGPGLVKPSETLSLSCTVSGGSISSKSDYWGWIRQSPGKGLEWIGSIYYTGTTYYNPSLKSRVSISLDKSKNQFSLKLNSLTAADTALYYCARDPSIAVATTVYFDAWGQGTLVTVSS
VL: EIVLTQSPGTLSLSPGERATLSCRASESVKSNYLAWYQQKLGQPPRLLIFGASTRATGIPDRFSGSGSGTDFTLTISRLEPEDFAVYYCQQYHTSPPRYTFGQGTKLEIK
B2: rbd.106 (antibody, V domains shown)
VH: EVQLVQSGAEVKKPGESLKISCKGSGYSFYNHWIAWVRQMPGKGLEWMGIIYPYDSDTRYSPSFQGQVTISADKSITTAYLQWSSLKASDTAIYYCARRSDYGEFGGHSDYWGQGTLVTVSS
VL: not shown
B3: rbd.110 (antibody, V domains shown)
VH: EVQLVESGGGVVQPGRSLRLSCVASGFTFSRYGMHWVRQAPGKGLEWVATILYDGSDQYYAESVKGRFTISRDNSKNTLYLQMNSLREADTAVYYCAKTSYGYAYNFRLYFDYWGQGTLVTVSS
VL: SYELTQPPSVSVAPGKTATITCGGNNIGSAGVHWYQQRPGQAPVLVVYDDSDRPSGIPERFSGSTSGNTATLTISRVEAGDEADYYCQVWDSNSAPVIFGGGTKLTVL
B4: rbd.112 (antibody, V domains shown)
VH: EVQLVQSGAEVKKSGESLKISCKSSGYSFTTYWIAWVRQMPGKGLEWMGIIYPGHSDARYSPSFQGHVTISADKSISTAYLQWRSLKASDTAIYYCARLSYYDVSNFYYYDSYWFDSWGLGTLVTVSS
VL: QSVLTQPPSVSGAPGQRVTISCTGSSSNLGAGYDVHWYQQLPGTAPKLLIYANSNRPSGVPDRFSGSKSGTSASLAMTGLQAEDEADYYCQSYDSSLGGYVFGFGTKVTVL
B5: rbd.113 (antibody, V domains shown)
VH: EVQLVQSGAAVKKPGESLKISCKGSGYSFTNYWIGWVRQMPGKGLELMGIIYVGDSDTRYSPSFQGQVTISADKSITTAYLQWSSLKASDSAIYYCARQRCGGDCPFDLWGRGTLVTVSS
VL: DIQMTQSPSTLSASVGDRVTITCRASQSINRWLAWYQQKPGKAPELLIYDASDLESGVPSRFSGSGSGTEFTLTISSLQPDDFATYYCQQYNSYWTFGQGTKVEIK
B6: rbd.117 (antibody, V domains shown)
VH: EVQLVESGGGLVQPGGSLRLSCAASGFTFSRYAMSWVRQAPGKGLEWVSGLSGSGDSTYYADSVKGRFTISRDNSKKTLNLQMNSLRPEDTAVYYCAKGSRFGIDYFDCWGQGTLVTVSS
VL: DIQMTQSPSTLSASVGDRVTITCRASQSISSWLAWYQLKPGKAPKLLIYDASSLESGVPSRFSGSGSGTEFTLTISSLQPDDFATYYCQQYNTYPFSFGPGTKVDIK
B7: rbd.123 (antibody, V domains shown)
VH: QVQLVQSGAEVKKPGSSVKVSCKASGGAFRMYAISWVRQAPGQGLEWMGGIIPISGTATYTQNFQGRVTITVDRSTSTAYMELSSLRSDDTALYYCARGPRTGYDYFDFWGQGTLVTVSS
VL: B6 VL with L38Q, K45N, N92K, T93S, F96Y, S97T, P100Q, V104L, D105E
B8: rbd.141 (antibody, V domains shown)
VH: EVQLVESGGGVVQPGRSLRLSCAASGFTFSSYGMHWVRQAPGKGLEWVAVISYDGKIKYYADSVEGRFTISRDNSKNALYLQMNSLRAEDTAVYYCAKYGIVTSFGVVPPYDMDVWGQGTTVTVSS
VL: DVVMTQSPLSLPVTLGQPASISCRSSQSLVYSDGNTFLNWFQQRPGQSPRRLIYKVSDRDSGVPDRFSGSGSGTDFTLKISRVEAEDVGVYYCMQGTNWPPTFGQGTKVEIK
B9: rbd.142 (antibody, V domains shown)
VH: EVQLVESGGGVVQPGRSLRLSCVASGLTFSRYGMHWVRQAPGKGLEWVAVTTYDGSNKDYADSVKGRFTISRDNSKNTLYLQMNSLRAEDTAVYYCAKVGGGEYCSGGSCYGSYGMDVWGQGTTVTVSS
VL: not shown
B10: fp.007 (antibody, V domains shown)
VH: EVQLVESGGGLVKPGGSLRLSCAGTGFIFSDAWMTWVRQAPGKGLEWVGRIKSKADGGTTDYAAPVKGRFTISRDDSKNTLYLEINSLKTEDTAVYYCTTGRSRYCIGAVCYYFDHWGQGTLVTVSS
VL: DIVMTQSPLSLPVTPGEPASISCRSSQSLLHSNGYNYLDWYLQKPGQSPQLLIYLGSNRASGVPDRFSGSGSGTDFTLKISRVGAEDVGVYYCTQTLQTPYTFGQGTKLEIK
B11: rbd.143 (antibody, V domains shown)
VH: EVQLVESGGGLVQPGGSLRLSCSASGFTFRRYAMHWVRQAPGKGLQHVSAISSDGDNTHYADSVKGRFTISRDNFKNTLHLQMSSLRPEDTAVYYCVKDPFSNFHYFDCWGQGILVTVSS
VL: not shown
B12: hr2.019 (antibody, V domains shown)
VH: EVQLVESGGGLVKPGGSLRLSCAASGSSVIDVWMNWVRQAPGKGLEWVGRIKTKASGAATDYGAPVKGRFTISRDDSKNLSYLQMNSLRAEDTGIYYCTTSPLPNFDYWGRGTLVTVSS
VL: DIVMTQSPDFLAVSLGETATINCRSSQSVFYFANNKNYLAWYQQKPGQPPKLLIYWASKRESGVPDRFSGSGSGTDFTLTISSLQAEDVATYYCQQYSSPAITFGPGTKVDIK
B13: hr2.090 (antibody, V domains shown)
VH: EVQLLESGGGLVQPGGSLRLSCAASGVTFSRYAMSWVRQAPGKGLEWVSTISGGGGGTYYADSVKGRFTISRDNSKNTLYLQMNSLRAEDTAVYYCATLLTVPGPYYFEYWGQGTLVTVSS
VL: EIVLTQSPGTLSLSPGERATLSCRASQSVSSSYLAWYQQKPGQAPRLLIYGASSRATGIPDRFSGSGSGTDFTLTISRLESEDFAVYYCQHSRFTFGPGTRVDIK
B14: sd1.034 (antibody, V domains shown)
VH: EVQLVESGGGVVQPGRSLRLSCAASGFSFSNYGMHWVRQAPGKGLEWVAVISYDGSHKSFADSVKGRFTISRDNSKNTLNLQMNSLRREDTAVYYCATDQGGSLGYWGQGTLVTVSS
VL: QSALTQPASVSGSPGQSITISCTGTSGDVGGYNYVSWYQHHPGKAPKLMIYDVSNRPSGVSNRFSGSKSGNTASLTISGLQAEDEADYYCSSYTSTSTSWVFGGGTKLTVL
B15: sd1.040 (antibody, V domains shown)
VH: QVQLVQSGAEVKKPGASVKVSCKASGYTFTSFYIHWVRQAPGQGLEWMGIIDPSGGSTSYPQKFQGRVTMTRDTSTSTVYMDLSSLRSEDTAVYYCTRDGSAGDNSWFDPWGQGTLVTVSS
VL: not shown
B16: sd1.108 (antibody, V domains shown)
VH: QVQLVQSGAEVKKPGASVKVSCKASGYTFTSYYIHWVRQTPGQGLEWMGIINPRGGSTSYPQKFQGRVSMTRDTSTSTVFMELSSLRSDDTAVYYCAREHREDTAMDNQPSDSWGQGTLVTVSS
VL: DIVMTQSPDSLSVSLGERATINCKSSRSVFYSSNNKSYLAWYQQKPGQPPKLLIYWASTRESGVRDRFSGSGSGTDFTLTISSLQAEDVAVYYCQQYYNTPYTFGQGTKLEIK
B17: sd1.127 (antibody, V domains shown)
VH: EVQLVESGGALVKPGGSLTLSCVASGFTFSHAWMTWVRQAPGKGLEWVGRIKTKTEGGTIDYAAPLRGRFTISRDDSKNTLYLRMNSLKIEDTAKYYCTTHSSPDYWGQGTLVTVSS
VL: DIQMTQSPSSLSASIGDRVTITCRASQGIGNSLLWYQQKRGKVPKLLIYAASTLQSGVPSRFSGSGSGTDFTLTISSLQPEDVATYYCQRYNSAPLTFGGGTKVEIK

Key:
[1] = biological target: SARS-CoV-2 S of the Ancestral pseudovirus (pSARS-COV2-Strunc) (SARS-CoV-2 (ancestral), UniProt P0DTC2 14-1254); assay: cell-based or functional assay
[2] = biological target: C-terminally truncated SARS-CoV-2 S protein (pSARS-CoV2-Strunc), ancestral (SARS-CoV-2, UniProt P0DTC2 14-1273); assay: cell-based or functional assay

Binder	Ancestral Pseudovirus IC50 [1]	Ancestral Pseudovirus IC50 [2]	Ancestral Pseudovirus IC50 (on cells with [not given]) [2]
B1	3.71 mg/L	–	–
B2	0.0674 mg/L	–	–
B3	4.25 mg/L	–	–
B4	0.0867 mg/L	–	–
B5	0.373 mg/L	–	–
B6	0.203 mg/L	–	–
B7	1.21 mg/L	–	–
B8	0.164 mg/L	–	–
B9	5.09 mg/L	–	–
B10	–	11.1 mg/L	3.98 mg/L
B11	0.28 mg/L	–	–
B12	–	1.22 mg/L	–
B13	–	1.02 mg/L	–
B14	0.387 mg/L	–	–
B15	0.245 mg/L	–	–
B16	0.446 mg/L	–	–
B17	6.68 mg/L	–	–
